Measurements published in patent US20120316071A1 (published 2012).
Residue numbers refer to the chain shown, from its start. Names and notes keep the numbering of the source.

T1: rHuman Erythropoietin R/Fc Chimera, CF (R&D Systems Cat#963-ER) (human, UniProt P19235 25-250)
T1 construct: Bought recombinant protein; also called EPO R; Epo R; Fc part of the bought chimera not given
T1 sequence (looked up): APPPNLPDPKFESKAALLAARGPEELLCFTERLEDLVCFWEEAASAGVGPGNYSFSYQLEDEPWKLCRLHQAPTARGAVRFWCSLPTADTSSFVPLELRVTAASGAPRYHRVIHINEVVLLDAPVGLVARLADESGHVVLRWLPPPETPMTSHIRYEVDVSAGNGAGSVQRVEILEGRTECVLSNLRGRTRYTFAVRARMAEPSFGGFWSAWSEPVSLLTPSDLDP

B1: Fab VH5-51_IGHD5-18*01>3_IGHJ4*01 G100K/G104T (KT) & V3-4_IGLJ1*01 R56Y (Fab, V domains shown)
VH: EVQLVQSGAEVKKPGESLKISCKGSGYSFTSYWIGWVRQMPGKGLEWMGIIYPGDSDTRYSPSFQGQVTISADKSISTAYLQWSSLKASDTAMYYCARRKYSYTYDYFDYWGQGTLVTVSS
VL: QTVVTQEPSFSVSPGGTVTLTCGLSSGSVSTSYYPSWYQQTPGQAPRTLIYSTNTYSSGVPDRFSGSILGNKAALTITGAQADDESDYYCVLYMGSGISYVFGTGTKVTVL
notes: Fab; also called H:KT & L:R56Y
B2: Fab VH5-51_IGHD5-18*01>3_IGHJ4*01 G100K/G104T (KT) & V3-4_IGLJ1*01 S52G (Fab, V domains shown)
VH: B1 VH
VL: B1 VL with S52G, Y56R
notes: Fab; also called H:KT & L:S52G
B3: Fab VH5-51_IGHD5-18*01>3_IGHJ4*01 G100K/G104T G24L & V3-4_IGLJ1*01 (Fab, V domains shown)
VH: B1 VH with G24L
VL: B1 VL with Y56R
notes: Fab; also called H:KT G24L & L:parent
B4: Fab VH5-51_IGHD5-18*01>3_IGHJ4*01 G100K/G104T G35V & V3-4_IGLJ1*01 (Fab, V domains shown)
VH: B1 VH with G35V
VL: B1 VL with Y56R
notes: Fab; also called H:KT G35V & L:parent
B5: Fab VH5-51_IGHD5-18*01>3_IGHJ4*01 G100K/G104T S28R & V3-4_IGLJ1*01 (Fab, V domains shown)
VH: B1 VH with S28R
VL: B1 VL with Y56R
notes: Fab; also called H:KT S28R & L:parent; H:KT S28R & L:wt
B6: Fab VH5-51_IGHD5-18*01>3_IGHJ4*01 G100K/G104T T58A & V3-4_IGLJ1*01 (Fab, V domains shown)
VH: B1 VH with T58A
VL: B1 VL with Y56R
notes: Fab; also called H:KT T58A & L:parent
B7: Fab VH5-51_IGHD5-18*01>3_IGHJ4*01 G100K/G104T T58D & V3-4_IGLJ1*01 (Fab, V domains shown)
VH: B1 VH with T58D
VL: B1 VL with Y56R
notes: Fab; also called H:KT T58D & L:parent
B8: Fab VH3-23_IGHD2-21*01>3_IGHJ6*01 H100E/S108P/Y113G/Y111W & V2-13_IGLJ2*01 (Fab, V domains shown)
VH: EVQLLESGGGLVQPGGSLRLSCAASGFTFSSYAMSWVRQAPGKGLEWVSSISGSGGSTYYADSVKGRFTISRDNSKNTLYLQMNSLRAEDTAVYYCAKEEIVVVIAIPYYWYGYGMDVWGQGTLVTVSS
VL: SSELTQDPAVSVALGQTVRITCQGDSLRSYYASWYQQKPGQAPVLVIYGKNNRPSGIPDRFSGSSSGNTASLTITGAQAEDEADYYCNSRDSSGNHLVVFGGGTKLTVL
notes: Fab made in E. coli: VH joined to CH1 (with His and Flag tags, plasmid A) and VL to lambda CL (plasmid E); also called EPG Y111W
B9: Fab VH3-23_IGHD2-21*01>3_IGHJ6*01 H100E/S108P/Y113G Y110I & V2-13_IGLJ2*01 (Fab, V domains shown)
VH: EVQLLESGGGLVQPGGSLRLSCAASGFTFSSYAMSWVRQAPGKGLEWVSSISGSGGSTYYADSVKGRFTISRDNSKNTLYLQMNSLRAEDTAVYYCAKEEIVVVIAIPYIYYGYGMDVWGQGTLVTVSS
VL: B8 VL
notes: Tested as Fab made in E. coli: VH joined to CH1 (His and Flag tags), VL joined to lambda CL; also called EPG Y110I
B10: Fab VH3-23_IGHD2-21*01>3_IGHJ6*01 H100E/S108P/Y113G Y110T & V2-13_IGLJ2*01 (Fab, V domains shown)
VH: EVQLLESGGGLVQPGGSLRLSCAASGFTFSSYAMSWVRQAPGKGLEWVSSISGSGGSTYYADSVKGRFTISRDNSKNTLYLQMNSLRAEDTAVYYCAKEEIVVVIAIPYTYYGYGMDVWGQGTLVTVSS
VL: B8 VL
notes: Tested as Fab made in E. coli: VH joined to CH1 (His and Flag tags), VL joined to lambda CL; also called EPG Y110T
B11: Fab VH3-23_IGHD2-21*01>3_IGHJ6*01 H100E/S108P/Y113G Y110W & V2-13_IGLJ2*01 (Fab, V domains shown)
VH: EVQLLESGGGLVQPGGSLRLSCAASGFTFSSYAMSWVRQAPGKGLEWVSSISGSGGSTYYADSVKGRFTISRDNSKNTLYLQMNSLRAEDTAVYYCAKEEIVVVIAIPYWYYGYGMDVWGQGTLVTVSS
VL: B8 VL
notes: Tested as Fab made in E. coli: VH joined to CH1 (His and Flag tags), VL joined to lambda CL; also called EPG Y110W
B12: Fab VH5-51_IGHD5-18*01>3_IGHJ4*01 G100K/G104T (H:KT) & V3-4_IGLJ1*01 (Fab, V domains shown)
VH: B1 VH
VL: B1 VL with Y56R
notes: Tested as Fab made in E. coli: VH joined to CH1 (Plasmid A, His and Flag tags), VL joined to lambda CL (Plasmid E); also called H:KT & L:wt; KT double mutant
B13: Fab VH5-51_IGHD5-18*01>3_IGHJ4*01 G100K/G104T (H:KT) & V3-4_IGLJ1*01 T78E (Fab, V domains shown)
VH: B1 VH
VL: B1 VL with Y56R, T78E
notes: Fab with CH1 and lambda CL from the expression plasmids; also called G100K/G104T & T78E
B14: Fab VH5-51_IGHD5-18*01>3_IGHJ4*01 G100K/G104T (H:KT) & V3-4_IGLJ1*01 T78K (Fab, V domains shown)
VH: B1 VH
VL: B1 VL with Y56R, T78K
notes: Fab with CH1 and lambda CL from the expression plasmids; also called G100K/G104T & T78K
B15: Fab VH5-51_IGHD5-18*01>3_IGHJ4*01 G100K/G104T (H:KT) & V3-4_IGLJ1*01 T78L (Fab, V domains shown)
VH: B1 VH
VL: B1 VL with Y56R, T78L
notes: Fab with CH1 and lambda CL from the expression plasmids; also called G100K/G104T & T78L
B16: Fab VH5-51_IGHD5-18*01>3_IGHJ4*01 G100K/G104T (H:KT) & V3-4_IGLJ1*01 T78S (Fab, V domains shown)
VH: B1 VH
VL: B1 VL with Y56R, T78S
notes: Fab with CH1 and lambda CL from the expression plasmids; also called G100K/G104T & T78S
B17: Fab VH5-51_IGHD5-18*01>3_IGHJ4*01 G100K/G104T (H:KT) & V3-4_IGLJ1*01 T78V (Fab, V domains shown)
VH: B1 VH
VL: B1 VL with Y56R, T78V
notes: Fab with CH1 and lambda CL from the expression plasmids; also called G100K/G104T & T78V
B18: Fab VH5-51_IGHD5-18*01>3_IGHJ4*01 G100K/G104T (H:KT) & V3-4_IGLJ1*01 G23A, N175K (Fab, V domains shown)
VH: B1 VH
VL: QTVVTQEPSFSVSPGGTVTLTCALSSGSVSTSYYPSWYQQTPGQAPRTLIYSTNTRSSGVPDRFSGSILGNKAALTITGAQADDESDYYCVLYMGSGISYVFGTGTKVTVLG
notes: also called G100K/G104T & G23A/N175K
B19: Fab VH5-51_IGHD5-18*01>3_IGHJ4*01 G100K/G104T (H:KT) & V3-4_IGLJ1*01 S25A, A116T (Fab, V domains shown)
VH: B1 VH
VL: B18 VL with A23G, S25A
notes: also called G100K/G104T & S25A/A116T; named S52A/A116T in the running text

target: T2, Recombinant Human DLL4 (delta-like protein 4) (human, UniProt Q9NR61 27-524); assay: ELISA on coated DLL4, Fab at 25 nM (2-fold serial dilution)
T2 construct: also called rHuman DLL4; Delta-like 4

Binder | ELISA signal
B1 | 0.205
B2 | 0.227
B3 | 0.221
B4 | 0.232
B5 | 0.365
B6 | 0.22
B7 | 0.218

target: T2, Recombinant Human DLL4 (delta-like …); assay: ELISA on coated DLL4, Fab at 50 nM (2-fold serial dilution)

Binder | ELISA signal
B1 | 0.211
B2 | 0.194
B3 | 0.245
B4 | 0.232
B5 | 0.456
B6 | 0.209
B7 | 0.23

target: T2, Recombinant Human DLL4 (delta-like …); assay: ELISA on coated DLL4, Fab at 100 nM (2-fold serial dilution)

Binder | ELISA signal
B1 | 0.231
B2 | 0.209
B3 | 0.298
B4 | 0.271
B5 | 0.529
B6 | 0.253
B7 | 0.219

target: T2, Recombinant Human DLL4 (delta-like …); assay: ELISA on coated DLL4, Fab at 12.5 nM (2-fold serial dilution)

Binder | ELISA signal
B1 | 0.184
B2 | 0.215
B3 | 0.233
B4 | 0.244
B5 | 0.309
B6 | 0.23
B7 | 0.223

target: T2, Recombinant Human DLL4 (delta-like …); assay: ELISA on coated DLL4, Fab at 6.25 nM (2-fold serial dilution)

Binder | ELISA signal
B1 | 0.182
B2 | 0.207
B3 | 0.278
B4 | 0.245
B5 | 0.303
B6 | 0.249
B7 | 0.224

target: T2, Recombinant Human DLL4 (delta-like …); assay: ELISA on coated DLL4, Fab at 3.125 nM (2-fold serial dilution)

Binder | ELISA signal
B1 | 0.18
B2 | 0.216
B3 | 0.257
B4 | 0.251
B5 | 0.246
B6 | 0.244
B7 | 0.252

target: T3, rHuman ErbB2/Fc Chimera, CF (R&D Systems Cat#1129-ER) (human, UniProt P04626 23-652); assay: ECL (MSD) multispot binding assay, antigen spotted on plate, 20 nM Fab;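 also: purified Fab incubated 1 h at 20 °C on antigen-spotted plate, bound Fab revealed with TAG detection antibody, ECL read, antigen signal divided by same-well blank, ratio ≥4 counted as hit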
T3 construct: Bought recombinant protein; also called human epidermal growth factor 2 receptor; Fc part of the bought chimera not given

Binder | ECL signal/blank ratio
B8 | 26.5

target: T4, rHuman EGF R/Fc Chimera, CF (R&D Systems Cat#344-ER) (human, UniProt P00533 25-645); assay: as above
T4 construct: Bought recombinant protein; also called epidermal growth factor receptor; Fc part of the bought chimera not given

Binder | ECL signal/blank ratio
B8 | 16.3

target: T5, rHuman IGF-1 sR, (IGF-1 sR), CF (R&D Systems Cat#391-GR) (human, UniProt P08069 31-932); assay: as above
T5 construct: Bought recombinant soluble receptor; also called insulin-like growth factor-1 soluble receptor

Binder | ECL signal/blank ratio
B8 | 1.4

target: T6, rHuman P-Cadherin/Fc Chimera, CF (R&D Systems Cat#861-PC) (human, UniProt P22223 108-654); assay: as above
T6 construct: Bought recombinant protein; Fc part of the bought chimera not given

Binder | ECL signal/blank ratio
B8 | 49.2

target: T7, Recombinant Human DLL4 (R&D Systems Cat#1506-D4/CF) (human, UniProt Q9NR61 27-524); assay: as above
T7 construct: Bought recombinant protein; also called delta-like protein 4; rHuman DLL4

Binder | ECL signal/blank ratio
B8 | 2.8

target: T8, rHuman ErbB2/Fc Chimera, CF (R&D Systems Cat#1129-ER) (human, UniProt P04626 23-652); assay: ECL multispot (MSD) binding assay, antigens spotted on plate, 20 nM Fab;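 also: fab incubated 1 h at 20 °C on antigen-spotted wells, bound Fab detected by TAG-labelled antibody, ratio of 4 or more over blank counted as a hit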
T8 construct: Bought recombinant protein; also called human epidermal growth factor 2 receptor; Fc part of the bought chimera not given

Binder | ECL multispot signal (ratio to blank; column not labelled)
B9 | 11.4
B10 | 0.8
B11 | 16.5

target: T9, rHuman EGF R/Fc Chimera, CF (R&D Systems Cat#344-ER) (human, UniProt P00533 25-645); assay: as above
T9 construct: Bought recombinant protein; also called epidermal growth factor receptor; Fc part of the bought chimera not given

Binder | ECL multispot signal (ratio to blank; column not labelled)
B9 | 8.6
B10 | 1.8
B11 | 7.6

target: T10, rHuman CD44/Fc Chimera, CF (R&D Systems Cat#3660-CD) (human, UniProt P16070 21-220); assay: as above
T10 construct: Bought recombinant protein; Fc part of the bought chimera not given

Binder | ECL multispot signal (ratio to blank; column not labelled)
B9 | 1.7
B10 | 1.6

target: T11, rHuman IGF-1 sR, (IGF-1 sR), CF (R&D Systems Cat#391-GR) (human, UniProt P08069 31-932); assay: as above
T11 construct: Bought recombinant soluble receptor; The column head prints only 'IGF-1'; also called insulin-like growth factor-1 soluble receptor

Binder | ECL multispot signal (ratio to blank; column not labelled)
B9 | 1.4
B10 | 1.8

target: T12, rHuman P-Cadherin/Fc Chimera, CF (R&D Systems Cat#861-PC) (human, UniProt P22223 108-654); assay: as above
T12 construct: Bought recombinant protein; Fc part of the bought chimera not given

Binder | ECL multispot signal (ratio to blank; column not labelled)
B9 | 39
B10 | 1
B11 | 38.8

target: T1, rHuman Erythropoietin R/Fc Chimera, CF …; assay: as above

Binder | ECL multispot signal (ratio to blank; column not labelled)
B9 | 73.7
B11 | 117

target: T13, Recombinant Human DLL4 (R&D Systems Cat#1506-D4/CF) (human, UniProt Q9NR61 27-524); assay: as above
T13 construct: Bought recombinant protein; also called delta-like protein 4; rHuman DLL4

Binder | ECL multispot signal (ratio to blank; column not labelled)
B9 | 2
B10 | 1.8

target: T14, Recombinant Human DLL4 (delta-like protein 4) (human, UniProt Q9NR61 27-524); assay: ECL (Meso Scale Discovery) binding assay on immobilised recombinant human DLL4; Fab concentration not given
T14 construct: Bought recombinant protein (R&D Systems Cat#1506-D4/CF); also called rHuman DLL4; Delta-like 4

Binder | ECL signal
B12 | 9360
B13 | 10600
B14 | 9620
B15 | 9550
B16 | 7550
B17 | 9830
B18 | 17800
B19 | 12200
